# Assay results: patent publication US9856300B2, “Dpy-30 binding peptides and methods of use” (Marquette University, priority 2011, dated 2018)
# No end group written: not given here.
# B1: RSP396-180: GST-tagged RSP3 fragment a.a. 96-180 that harbors the RIIa-binding AHR at a.a.#161-178 (protein)
# chain: HIDIQTDVYLEELTDTVPEADTSTQTDAFLDRPPTPLFVPQKTGTDAITQIENGDLFDFDFEVEPILEVLVGKVLEQGLMEVLEE
# modifications: left off: a dimerising Fc or GST
# Assays:
# [1] = biological target: T1, Dpy-30 domain only (Dpy-3045-99) (Homo sapiens, UniProt Q9C005); assay: Ni-NTA pulldown of GST-tagged RSP3 peptides with the Dpy-30 domain only; format: binding
# T1 construct: made in house; host or cells: E. coli BL21(DE3), co-expressed with the GST-RSP3 peptides
# Procedure: (§1) The experiments were further conducted on smaller segments within a.a.#269-316. GST-RSP3280-316 and GST-RSP3280-308, but not GST-RSP3280-306, were also pulled down by His-Dpy-30 (FIG. 7E, left panel). […] To ensure that the co-purification occurs through the Dpy-30 domain rather than its flanking sequence, the same experiment was conducted with the Dpy-30 domain only (Dpy-3045-99, Wang et al., 2009). The results from the experiments using Dpy-30 domain alone or full-length Dpy-30 protein were similar (FIG. 7E, right panel). Based on the similar dimensions of the RIIa and Dpy-30 domains (FIG. 1), we tested if the Dpy-30 binding peptide is centered on the 18-a.a. helix at the a.a.#291-308 by mutating V300 in the middle of the region into P, a strategy used to study AHR (Gaillard et al., 2001; Carr et al., 1992). […] RSP3291-308.
# For Ni-NTA (Qiagen) affinity co-purification, GST-tagged RSP3 constructs and His-tagged HDpy-30 constructs were co-transformed into BL21(DE3) cells. The recombinant proteins were induced using 1 mM IPTG overnight at 16° C. Following induction, the cell pellet from a 5-ml culture was resuspended in 750 μl lysis buffer and sonicated using Branson digital Sonifier (Emerson Industrial Automation). The sonicated mixtures were centrifuged at 4° C., 12,000 rpm for 25 min. The supernatant was incubated with 100 μl Ni-NTA for 1 hour at room temperature. […]
# Dpy-30 [2] = biological target: T2, Dpy-30 (Homo sapiens, UniProt Q9C005); assay: Ni-NTA pulldown of GST-tagged RSP3 peptides with His-tagged human Dpy-30 protein; format: binding; design: made in house; host or cells: E. coli BL21(DE3), co-expressed with the GST-RSP3 peptides; conditions: full-length human His-Dpy-30 co-expressed with GST-RSP3 peptide
# Text: (§2) Based on the phenotypes of RSP3 transgenic strains (FIG. 4), an in vitro approach was taken to test that RSP3269-316 contains a Dpy-30 domain binding site. RIIa-binding AHs are 14-18-a.a. long. Some of AHs are clearly comprised of ΦΦXX repeats in which the first two residues are hydrophobic residues (Φ) positioned to interact with complementary residues at the binding grooves of the RIIa domain (Burns-Hamuro et al., 2003; Kinderman et al., 2006; Sarma et al., 2010), whereas for the other RIIa-binding AHs the repeats are not as evident (Gold et al., 2006; Gaillard et al., 2001). Typical ΦΦXX repeats were noted within the Dpy-30 binding fragment in BIG1 at the trans-Golgi network but were not tested yet (Xia et al., 2010). For RSP3269-316, typical and degenerate ΦΦXX repeats are present throughout this region, thus the precise Dpy-30 binding site was determined objectively by Ni-NTA pulldown. As a control, the His-tagged RIIa domain from RSP7 was co-expressed with the GST-tagged RSP396-180 that harbors AHR at a.a.#161-178 (Gaillard et al., 2001; FIG. 3) and both polypeptides were co-purified by Ni-NTA (FIG. 7A). Various Dpy-30 domain containing RSP2 and RSP23 polypeptides were tested but were not compatible for this assay due to poor expression or precipitation propensity. Therefore we used the His-tagged human Dpy-30 protein for Ni-NTA pulldown instead. As expected, both GST-RSP3245-316 and GST-RSP3269-316 were co-purified with His-Dpy-30 by Ni-NTA (FIGS. 7B and 7C). In contrast, the GST control was not co-purified (FIG. 7D).
# as §1
# For Ni-NTA (Qiagen) affinity co-purification, GST-tagged RSP3 constructs and His-tagged HDpy-30 constructs were co-transformed into BL21(DE3) cells. The recombinant proteins were induced using 1 mM IPTG overnight at 16° C. Following induction, the cell pellet from a 5-ml culture was resuspended in 750 μl lysis buffer and sonicated using Branson digital Sonifier (Emerson Industrial Automation). The sonicated mixtures were centrifuged at 4° C., 12,000 rpm for 25 min. The supernatant was incubated with 100 μl Ni-NTA for 1 hour at room temperature. The matrix was subsequently washed thrice and elution was carried out as instructed by the manufacturer.
# Dpy-30 [3] = biological target: T2, Dpy-30; assay: Ni-NTA pulldown of GST-hAsh2 peptides with His-Dpy-30; format: binding; design: Dpy-30 fragments, full length or a.a.#49-99, were amplified using purchased IMAGE cDNA clone #4081996 as a template; made in house; host or cells: E. coli BL21(DE3); key to co-purified with Dpy-30: “+” or “−” indicates if the peptides were or were not evidently co-purified with Dpy-30; “+” or “−” indicates if the peptides were or were not evidently co-purified with Dpy-30
# Text: To test this, we performed pull down assays for His-Dpy-30 and GST-hAsh2593-623. The human Ash2 fragment contains a helix with two typical and three atypical ΦΦXX motifs. The hAsh2 DNA was fused downstream to GST DNA by PCR and the product was cloned into an expression vector. Three clones—#9 and #14 with the expected in-frame fusion and #6 with an out-of-frame fusion—were expressed in bacteria. Their extract was mixed with equal volume of bacterial extract with His-Dpy-30; and the mixture was subjected to Ni-NTA purification. […] Thus hAsh2593-623 interacts with Dpy-30 specifically.
# Table 3 illustrates the protein sequences of hAsh2's C-terminal region (hAsh2593-623) and its variants, where “+” or “−” indicates if the peptides were or were not evidently co-purified with Dpy-30. The shorter fusion protein GST-hAsh2593-617 that terminated right after the last possible ΦΦXX-like motif, VETE (SEQ ID NO:35), in the helix was also co-purified with His-Dpy-30 (FIG. 11B, arrow and double arrowheads), no matter expressed separately or co-expressed. Both polypeptides were depleted in the flow through of Ni-NTA matrix (Post in FIG. 11B) and retained in the eluate.
# All expression constructs were transformed or co-transformed into BL21(DE3) cells. The colonies were selected based on the antibiotic-resistant gene in each plasmid. The cultures were induced with 1 mM IPTG overnight at 18° C. The cell pellet from a 5-ml culture was resuspended in 750-μl lysis buffer supplemented with Complete Mini EDTA-free protease inhibitor cocktail tablets (Roche) and the suspension was sonicated on ice using Branson digital Sonifier until clarified (Emerson Industrial Automation). The sonicated mixtures were centrifuged at 4° C., 12,000 rpm for 25 min. The supernatant or combinations of supernatants as indicated were incubated with ˜100 μl Ni-NTA (Qiagen or Clontech) or Glutathione Sepharose 4B (Amersham Biosciences) for 1 hour at room temperature. The matrix was subsequently washed as instructed by manufacturers, unless indicated otherwise.
# Bacterial extract, flow through and eluate in 1× Laemmli samples buffer were boiled for 5 min. In general, 10 μl samples were loaded in each lane in 4-20% precast acrylamide gels (Bio-Rad or DGEL Electrosystem, Canada) or 14% manually cast gels.
# RIIα D/D (a.a.#1-64) = biological target: T3, RIIα D/D (a.a.#1-64) (Mus musculus, UniProt P12367, S2G); assay: Ni-NTA pulldown with His-RIIα D/D; format: binding; conditions: 300 mM NaCl buffers
# T3 construct: made in house; host or cells: E. coli BL21(DE3); template pRSETB-RIIα from Dr. Susan Taylor
# Text: (§3) Most AHs are mono-specific to RIIα D/D except a few that are either RIα D/D-specific (Angelo and Rubin, 1998; Means et al., 2011; Welch et al., 2010) or dual specific, binding to both (Huang et al., 1997; Jarnaess et al., 2008). To test if hAsh2 AH can cross-react with PKA's D/D, we created constructs expressing the D/D domain and the flanking sequences from bovine RIα (a.a.#1-81) and mouse RIIα (a.a.#1-64). His-RIα D/D or His-RIIα D/D was co-expressed with GST-RSP396-180, which contains the AH (RSP3160-178) that bind RII in the overlay assay (Gaillard et al., 2001). […] In the eluate, the ratio of RSP396-180-RIα D/D was the lowest, followed by RSP396-180-RIIα D/D and then RSP396-180-RIIα D/D from RSP7, the de facto partner of RSP3. Although RSP396-180 in the extract was also the most concentrated when co-expressed with RSP7's RIIα, this likely is due to effective binding of RSP7's D/D, protecting GST-RSP396-180 from proteolysis, which occurred when GST-RSP396-180 was expressed by itself (not shown). Similarly, when co-expressed with GST-hAsh2593-623, RIα D/D and RIIα D/D were depleted in the flow through but few polypeptides, especially RIIα D/D, were present in the eluate (FIG. 12A, right panel, compare Extract, Post and Elute). […]
# RIα D/D (a.a.#1-81) = biological target: T4, RIα D/D (a.a.#1-81) (Bos taurus, UniProt P00514); assay: Ni-NTA pulldown with His-RIα D/D; format: binding, bovine; conditions: 300 mM NaCl buffers
# T4 construct: made in house; host or cells: E. coli BL21(DE3); template pRSETB-RIα from Dr. Susan Taylor
# Text: as §3, with “shown).” for “shown). Similarly, when co-expressed with GST-hAsh2593-623, RIα D/D and RIIα D/D were depleted in the flow through but few polypeptides, especially RIIα D/D, were present in the eluate (FIG. 12A, right panel, compare Extract, Post and Elute).”
# Although both RIα D/D and Dpy-30 D/D have a common α0 helix (Wang et al., 2009), GST-hAsh2593-623 cross reacted with RIα D/D poorly. […] To test this, the samples from repeated experiments were analyzed in the non-reducing SDS-PAGE. […]
# RIIa domain from RSP7 = assay: Ni-NTA pulldown with His-tagged RIIa domain from RSP7; format: binding, Chlamydomonas; conditions: co-expressed in bacteria
# Text: as §2
# Based on the structural similarity, we tested for the cross-recognition of His-Dpy-30 and AHR (GST-RSP3g); and RSP7's RIIa and AHD (GST-RSP3280-308) by the described Ni-NTA pulldown assay. […] Thus Dpy-30 that has a deep pocket from an additional α-helix recognizes both AHR and AHD, whereas RSP7's RIIa, as PKA's RII, only binds RSP3's AHR(Gaillard et al., 2001). […]
# T2 sequence (Q9C005 whole entry, the tested form may be a part): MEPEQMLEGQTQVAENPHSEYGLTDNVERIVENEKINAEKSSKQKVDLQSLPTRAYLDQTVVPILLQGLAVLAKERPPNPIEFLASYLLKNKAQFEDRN
# T4 sequence (P00514 1-81): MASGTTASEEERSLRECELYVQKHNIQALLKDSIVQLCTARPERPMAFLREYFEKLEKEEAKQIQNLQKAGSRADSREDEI
# T1 sequence (Q9C005 45-99): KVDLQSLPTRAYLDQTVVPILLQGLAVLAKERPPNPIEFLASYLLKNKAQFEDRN
# T3 sequence (P12367 1-64 S2G limits assumed): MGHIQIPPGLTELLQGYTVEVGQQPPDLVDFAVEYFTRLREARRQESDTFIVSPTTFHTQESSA
Molecule,binding to the Dpy-30 domain [1],co-purification / pulldown with His-Dpy-30 (Dpy-30 [2]),"co-purified with Dpy-30 (Dpy-30 [3]; GST-fused hAsh2 peptides, Ni-NTA pulldown, Coomassie-stained SDS-PAGE)","co-purification with His-Dpy-30 (Dpy-30 [3]; full-length His-Dpy-30, Ni-NTA, result in words)",co-purification with His-RIIα D/D (RIIα D/D (a.a.#1-64)),co-purification with His-RIα D/D (RIα D/D (a.a.#1-81)),co-purification / pulldown with His-RIIa from RSP7 (RIIa domain from RSP7),co-purification / pulldown with His-RIIa from RSP7 (RIIa domain from RSP7; listed as GST-RSP390-180)
V300P: GST-tagged RSP3280-316 with V300 mutated into P (PWLKEQAIGYLARGVVARRVPDKLVEDAAAALAANRS; also: GST tag),abrogated the binding,abrogated the binding,–,–,–,–,–,–
"PMSDMGWGAVVKHTLADVLYHVETEVDGRRS (also: GST fusion) [E604K, GST-hAsh2593-623 with E604 mutated to K]",–,–,+,still pulled down substantially,substantially enhanced the pulldown,not,–,–
B1,–,pulled down,–,–,–,the lowest,co-purified,most efficient
